Measured values as given in patent US20100248359A1 (Chugai, published 2010).
Read-outs that look alike come from different tables or passages of the source.

Assays:
[1] = target: T1, soluble form of GPC3 core protein (human, UniProt P51654 25-563); assay: ELISA on GPC3 (the legend says only GPC3; the filing's ELISA uses plates coated with soluble GPC3 core protein) [upper panel]
T1 construct: not shown: His tag added to the C-terminus

[2] = target: T1, soluble form of GPC3 core protein; assay: ELISA on GPC3 (the legend says only GPC3; the filing's ELISA uses plates coated with soluble GPC3 core protein) [lower panel]
[3] = target: T1, soluble form of GPC3 core protein; assay: ELISA on plate coated with soluble GPC3 core protein; antibody from COS7 culture supernatant [upper right panel]
full-length human GPC3 [4] = target: T2, full-length human GPC3 (human, UniProt P51654 25-554); assay: flow cytometry, antibody at 5 µg/mL, HuH-7 cells
T2 construct: On CHO (DXB11) or SK-HEP-1 (SK-03) transfectants; also used here for the GPC3 on the hepatoma lines HepG2 and HuH-7; also called human glypican 3
T2 sequence (P51654 25-554 limits assumed): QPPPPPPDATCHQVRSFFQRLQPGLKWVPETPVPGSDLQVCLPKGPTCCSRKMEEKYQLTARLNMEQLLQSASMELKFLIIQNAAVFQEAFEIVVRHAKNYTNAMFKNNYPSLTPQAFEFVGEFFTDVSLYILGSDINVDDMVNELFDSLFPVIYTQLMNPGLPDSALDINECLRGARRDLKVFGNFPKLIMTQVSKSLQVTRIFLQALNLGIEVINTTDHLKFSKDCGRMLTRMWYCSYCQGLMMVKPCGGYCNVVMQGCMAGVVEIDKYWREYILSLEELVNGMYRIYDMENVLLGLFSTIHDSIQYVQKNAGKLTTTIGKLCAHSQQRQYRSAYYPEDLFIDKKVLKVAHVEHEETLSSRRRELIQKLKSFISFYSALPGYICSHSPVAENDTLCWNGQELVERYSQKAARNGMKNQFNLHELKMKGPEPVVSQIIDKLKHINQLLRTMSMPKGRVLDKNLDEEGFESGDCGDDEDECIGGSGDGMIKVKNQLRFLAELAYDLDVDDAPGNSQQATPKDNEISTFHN

full-length human GPC3 [5] = target: T2, full-length human GPC3; assay: flow cytometry, antibody at 5 µg/mL, HepG2 cells
[6] = target: T1, soluble form of GPC3 core protein; assay: ELISA on plate coated with soluble GPC3 core protein
full-length human GPC3 [7] = target: T2, full-length human GPC3; assay: flow cytometry, antibody at 5 µg/mL, CHO cells expressing human GPC3 (column CHO/human GPC3)
full-length human GPC3 [8] = target: T2, full-length human GPC3; assay: flow cytometry, antibody at 5 µg/mL, HuH-7 cells; remark: listed apart in the source
[9] = target: T1, soluble form of GPC3 core protein; assay: competitive ELISA on coated soluble GPC3 core protein; labelled competitor biotin-M1E7;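 also: Biotin-labelled antibody added as 10 µL at 10 µg/mL for 1 h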
[10] = target: T1, soluble form of GPC3 core protein; assay: ELISA on plate coated with soluble GPC3 core protein; remark: listed apart in the source
[11] = target: T1, soluble form of GPC3 core protein; assay: competitive ELISA on coated soluble GPC3 core protein; labelled competitor biotin-M5B9;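 also: Biotin-labelled antibody added as 10 µL at 10 µg/mL for 1 h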
full-length human GPC3 [12] = target: T2, full-length human GPC3; assay: flow cytometry, antibody at 5 µg/mL, CHO cells expressing human GPC3 (column CHO/human GPC3); remark: listed apart in the source
full-length human GPC3 [13] = target: T2, full-length human GPC3; assay: BIACORE; the form of GPC3 used is not given
[14] = target: T1, soluble form of GPC3 core protein; assay: competitive ELISA on coated soluble GPC3 core protein; labelled competitor biotin-M18D4;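 also: Biotin-labelled antibody added as 10 µL at 10 µg/mL for 1 h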
[15] = target: T1, soluble form of GPC3 core protein; assay: competitive ELISA on coated soluble GPC3 core protein; labelled competitor biotin-L9G11;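 also: Biotin-labelled antibody added as 10 µL at 10 µg/mL for 1 h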
[16] = target: T1, soluble form of GPC3 core protein; assay: competitive ELISA on coated soluble GPC3 core protein; labelled competitor biotin-M10D2;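 also: Biotin-labelled antibody added as 10 µL at 10 µg/mL for 1 h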
[17] = target: T1, soluble form of GPC3 core protein; assay: competitive ELISA on coated soluble GPC3 core protein; labelled competitor biotin-M6B1;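 also: Biotin-labelled antibody added as 10 µL at 10 µg/mL for 1 h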
[18] = target: T1, soluble form of GPC3 core protein; assay: competitive ELISA on coated soluble GPC3 core protein; labelled competitor biotin-M3C11;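 also: Biotin-labelled antibody added as 10 µL at 10 µg/mL for 1 h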
[19] = target: T1, soluble form of GPC3 core protein; assay: competitive ELISA on coated soluble GPC3 core protein; labelled competitor biotin-M11F1;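 also: Biotin-labelled antibody added as 10 µL at 10 µg/mL for 1 h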
full-length human GPC3 [20] = target: T2, full-length human GPC3; assay: flow cytometry, antibody at 5 µg/mL, HepG2 cells; remark: listed apart in the source
[21] = target: T3, GC-3 (GST fusion of GPC3 Ala524 to Lys563) (human, UniProt P51654 524-563); assay: Western blotting of GST-fusion proteins, reducing SDS-PAGE
T3 construct: not shown: GST as encoded by pGEX-4T-3 (Amersham), N-terminal to the GPC3 peptide
T3 chain: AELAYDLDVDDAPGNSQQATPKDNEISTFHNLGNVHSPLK

B1: GC33 mouse-human chimeric antibody (antibody, V domains shown)
VH: QVQLQQSGAELVRPGASVKLSCKASGYTFTDYEMHWVKQTPVHGLKWIGALDPKTGDTAYSQKFKGKATLTADKSSSTAYMELRSLTSEDSAVYYCTRFYSYTYWGQGTLVTVSA
VL: DVVMTQTPLSLPVSLGDQASISCRSSQSLVHSNGNTYLHWYLQKPGQSPKLLIYKVSNRFSGVPDRFSGSGSGTDFTLKISRVEAEDLGVYFCSQNTHVPPTFGSGTKLEIK
notes: also called chimeric antibody GC33; mouse/mouse
EC50 (read off the curve) [1]: ~0.01 mg/L

B2: humanized GC33 H chain ver.f / L chain ver.a (antibody, V domains shown)
VH: QVQLVESGAEVKKPGASVKVSCKASGYTFTDYEMHWVRQAPGQGLEWMGALDPKTGDTAYSQKFKGRVTLTADKSTSTAYMELSSLRSEDTAVYYCTRFYSYTYWGQGTLVTVSS
VL: DVVMTQSPLSLPVTPGEPASISCRSSQSLVHSNGNTYLHWYLQKPGQSPQLLIYKVSNRFSGVPDRFSGSGSGTDFTLKISRVEAEDVGVYYCSQNTHVPPTFGQGTKLEIK
EC50 (read off the curve) [1]: ~0.01 mg/L

B3: humanized GC33 H chain ver.h / L chain ver.a (antibody, V domains shown)
VH: QVQLVESGAEVKKPGASVKVSCKASGYTFTDYEMHWVRQAPGQGLEWMGALDPKTGDTAYSQKFKGRVTLTADKSTSTAYMELSSLTSEDTAVYYCTRFYSYTYWGQGTLVTVSS
VL: DVVMTQSPLSLPVTPGEPASISCRSSQSLVHSNGNTYLHWYLQKPGQSPQLLIYKVSNRFSGVPDRFSGSGSGTDFTLKISRVEAEDVGVYYCSQNTHVPPTFGQGTKLEIK
EC50 (read off the curve) [2]: ~0.03 mg/L

B4: humanized GC33 H chain ver.i / L chain ver.a (antibody, V domains shown)
VH: QVQLVQSGAEVKKPGASVKVSCKASGYTFTDYEMHWVRQAPGQGLEWMGALDPKTGDTAYSQKFKGRVTLTADESTSTAYMELSSLRSEDTAVYYCTRFYSYTYWGQGTLVTVSS
VL: DVVMTQSPLSLPVTPGEPASISCRSSQSLVHSNGNTYLHWYLQKPGQSPQLLIYKVSNRFSGVPDRFSGSGSGTDFTLKISRVEAEDVGVYYCSQNTHVPPTFGQGTKLEIK
EC50 (read off the curve) [2]: ~0.03 mg/L

B5: humanized GC33 H chain ver.c / L chain ver.a (antibody, V domains shown)
VH: QVQLVESGAEVKKPGASVKVSCKASGYTFTDYEMHWVRQAPGQGLEWMGALDPKTGDTAYSQKFKGRVTLTADESTSTAYMELSSLRSEDTAVYYCTRFYSYTYWGQGTLVTVSS
VL: DVVMTQSPLSLPVTPGEPASISCRSSQSLVHSNGNTYLHWYLQKPGQSPQLLIYKVSNRFSGVPDRFSGSGSGTDFTLKISRVEAEDVGVYYCSQNTHVPPTFGQGTKLEIK
EC50 (read off the curve) [1]: ~0.01 mg/L

B6: modified humanized GC33 (H chain ver.k, L chain G34E) (antibody, human IgG1, V domains shown)
VH: QVQLVQSGAEVKKPGASVKVSCKASGYTFTDYEMHWVRQAPGQGLEWMGALDPKTGDTAYSQKFKGRVTLTADKSTSTAYMELSSLTSEDTAVYYCTRFYSYTYWGQGTLVTVSS
VL: DVVMTQSPLSLPVTPGEPASISCRSSQSLVHSNENTYLHWYLQKPGQSPQLLIYKVSNRFSGVPDRFSGSGSGTDFTLKISRVEAEDVGVYYCSQNTHVPPTFGQGTKLEIK
notes: COS7 supernatant; human IgG1/kappa
EC50 (read off the curve) [3]: ~0.02 mg/L

B7: GC33 mouse H chain variable region / humanized L chain ver.a (antibody, V domains shown)
VH: QVQLQQSGAELVRPGASVKLSCKASGYTFTDYEMHWVKQTPVHGLKWIGALDPKTGDTAYSQKFKGKATLTADKSSSTAYMELRSLTSEDSAVYYCTRFYSYTYWGQGTLVTVSA
VL: DVVMTQSPLSLPVTPGEPASISCRSSQSLVHSNGNTYLHWYLQKPGQSPQLLIYKVSNRFSGVPDRFSGSGSGTDFTLKISRVEAEDVGVYYCSQNTHVPPTFGQGTKLEIK
notes: also called mouse/ver.a
EC50 (read off the curve) [2]: ~0.03 mg/L

B8: modified humanized GC33 (H chain ver.k, L chain G34F) (antibody, human IgG1, V domains shown)
VH: QVQLVQSGAEVKKPGASVKVSCKASGYTFTDYEMHWVRQAPGQGLEWMGALDPKTGDTAYSQKFKGRVTLTADKSTSTAYMELSSLTSEDTAVYYCTRFYSYTYWGQGTLVTVSS
VL: DVVMTQSPLSLPVTPGEPASISCRSSQSLVHSNFNTYLHWYLQKPGQSPQLLIYKVSNRFSGVPDRFSGSGSGTDFTLKISRVEAEDVGVYYCSQNTHVPPTFGQGTKLEIK
notes: as for B6
EC50 (read off the curve) [3]: ~0.02 mg/L

B9: humanized GC33 ver.a/ver.a (antibody, V domains shown)
VH: QVQLVESGAEVKKPGASVKVSCKASGYTFTDYEMHWVRQAPGQGLEWMGALDPKTGDTAYSQKFKGRVTITADESTSTAYMELSSLRSEDTAVYYCARFYSYTYWGQGTLVTVSS
VL: DVVMTQSPLSLPVTPGEPASISCRSSQSLVHSNGNTYLHWYLQKPGQSPQLLIYKVSNRFSGVPDRFSGSGSGTDFTLKISRVEAEDVGVYYCSQNTHVPPTFGQGTKLEIK
notes: Human IgG (HEFg gamma1 vector) and human kappa constant regions
EC50 (read off the curve) [1]: ~0.1 mg/L

B10: GC194 (antibody, V domains shown)
VH: EVQLVETGGGLVQPKGSLKLSCAASGFTFNASAMNWVRQAPGKGLEWVARIRSKSNNYAIYYADSVKDRFTISRDDSQSMLYLQMNNLKTEDTAMYYCVRDPGYYGNPWFAYWGQGTLVTVSA
VL: DIVMTQAAFSNPVTLGTSASISCRSSKSLLHSYDITYLYWYLQKPGQSPQLLIYQMSNLASGVPDRFSSSGSGTDFTLRISRVEAEDVGVYYCAQNLELPPTFGGGTKLEIK
FACS X-mode value of the histogram (full-length human GPC3 [4]): 1.5
FACS X-mode value of the histogram (full-length human GPC3 [5]): 7.9
EC50 [6]: 3.83 nM
FACS X-mode value of the histogram (full-length human GPC3 [7]): 5

B11: M10D2 (antibody, V domains shown)
VH: QVQLQQPGAELVKPGASVKLSCKASGYTFTSYWMHWVKQRPGQGLEWIGEIDPSDSYTYYNQKFRGKATLTVDKSSNTAYMQLSSLTSEDSAVYYCSRSNLGDGHYRFPAFPYWGQGTLVTVSA
VL: DIVLTQSPATLSVTPGDRVSLSCRASHSISNFLHWYPQKSHESPRLLIKYASQSISGIPSRFSGNGSGTDFTLSINSVETEDFGMYFCQQSNIWSLTFGAGTKLELK
notes: Mouse monoclonal from hybridoma
FACS X-mode value of the histogram (full-length human GPC3 [8]): 3
Inhibition of the binding of indicated biotin-Mab to sGPC3 core (%) [9]: 0.6%
EC50 [10]: 1.04 nM
Inhibition of the binding of indicated biotin-Mab to sGPC3 core (%) [11]: -10.3%
FACS X-mode value of the histogram (full-length human GPC3 [12]): 20
Kd (full-length human GPC3 [13]): 4.7 nM
koff (full-length human GPC3 [13]): 0.000496 s⁻¹
kon (full-length human GPC3 [13]): 110000 M⁻¹ s⁻¹
Inhibition of the binding of indicated biotin-Mab to sGPC3 core (%) [14]: -21.6%
Inhibition of the binding of indicated biotin-Mab to sGPC3 core (%) [15]: 7.2%
Inhibition of the binding of indicated biotin-Mab to sGPC3 core (%) [16]: 79.2%
Inhibition of the binding of indicated biotin-Mab to sGPC3 core (%) [17]: -5.9%
Inhibition of the binding of indicated biotin-Mab to sGPC3 core (%) [18]: -7.7%
Inhibition of the binding of indicated biotin-Mab to sGPC3 core (%) [19]: 7.8%
FACS X-mode value of the histogram (full-length human GPC3 [20]): 29

B12: M3C11 (antibody, human IgG1, kappa, V domains shown)
VH: EVQLVESGGGLVKPGGSLKLSCAASGFTFSRYAMSWVRQIPEKILEWVAAIDSSGGDTYYLDTVKDRFTISRDNANNTLHLQMRSLRSEDTALYYCVRQGGAYWGQGTLVTVSA
VL: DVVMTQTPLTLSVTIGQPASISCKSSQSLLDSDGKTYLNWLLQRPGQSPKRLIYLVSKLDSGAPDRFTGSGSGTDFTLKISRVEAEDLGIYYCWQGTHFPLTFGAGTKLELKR
notes: as for B11
FACS X-mode value of the histogram (full-length human GPC3 [8]): 9
Inhibition of the binding of indicated biotin-Mab to sGPC3 core (%) [9]: 96.2%
EC50 [10]: 0.12 nM
Inhibition of the binding of indicated biotin-Mab to sGPC3 core (%) [11]: 9.1%
FACS X-mode value of the histogram (full-length human GPC3 [12]): 83
Kd (full-length human GPC3 [13]): 0.3 nM
koff (full-length human GPC3 [13]): 6.5e-05 s⁻¹
kon (full-length human GPC3 [13]): 250000 M⁻¹ s⁻¹
Inhibition of the binding of indicated biotin-Mab to sGPC3 core (%) [14]: 10.3%
Inhibition of the binding of indicated biotin-Mab to sGPC3 core (%) [15]: 33.1%
Inhibition of the binding of indicated biotin-Mab to sGPC3 core (%) [16]: 39.9%
Inhibition of the binding of indicated biotin-Mab to sGPC3 core (%) [17]: 11.2%
Inhibition of the binding of indicated biotin-Mab to sGPC3 core (%) [18]: 96.8%
Inhibition of the binding of indicated biotin-Mab to sGPC3 core (%) [19]: 12%
FACS X-mode value of the histogram (full-length human GPC3 [20]): 59
binding result [21]: no binding
